Reference: patent US20100048482A1, “COMPOSITIONS AND METHODS FOR MODULATING EPSILON PROTEIN KINASE C-MEDIATED CYTOPROTECTION” (Board of Trustees of the Leland Stanford Junior University, priority 2008, published 2010)
“Also recorded” adds a separate entry of the source. Ends that are not written are not given here.

Columns and labels:
[1] = tested on: Langendorff perfused rat heart; experiment: Ex vivo Langendorff perfused rat heart ischemia-reperfusion, creatine phosphokinase (CPK) release; conditions: 1 μM TAT-conjugated peptide; for effect on IR-induced CPK release / IR injury: ex vivo IR
Procedure: In accordance with a well-established ex vivo rat heart model for ischemia-reperfusion (see, e.g., U.S. Publication Nos. 20080167247, 20080153926, 20070299012, and 20060293237, which are herein incorporated by reference) and the method described in Example 1, hearts were removed from animals (rats) and subjected to a normoxia or an IR protocol, both depicted in FIG. 1A. The normoxia regimen comprised exposing hearts to 70 minutes of a normal oxygen state. The IR (ischemia/reperfusion) regimens comprised subjecting hearts to 20 minutes of normoxia, followed by 35 minutes of ischemia, followed by 15 minutes of reperfusion. […] The amount of necrotic cell death was then determined by measuring the release of creatine phosphokinase (CPK) into the buffer perfusate during reperfusion, which served as an indicator of ischemic damage.
(§1) Rat hearts (Wistar, 250-300 g) were excised and cannulated on a Langendorff apparatus via the aorta. Briefly, retrograde perfusion was carried out with a constant coronary flow rate of 10 ml/min with oxygenated Krebs-Henseleit buffer containing 120 mM NaCl, 5,8 mM KCl, 25 mM NaHCO3, […], 1.2 mM MgSO4, 1.2 mM CaCl2, and 10 mM dextrose, pH 7.4 at 37° C. After a 20 min equilibration period, hearts were subjected to a 35 min of no-flow, global ischemia followed by 15 min of reperfusion. Control hearts were perfused with normoxic Krebs buffer and were time-matched for the experimental period. […] At the end of the 15 mins reperfusion period, hearts were rapidly transferred to ice-cold homogenization buffer and subcellular fractions separated by differential centrifugation as described below.
Necrotic damage was determined by measurement of the release of the cardiac myocyte cytosolic enzyme, creatine phosphokinase (CPK), into the effluent (FIG. 1B). The levels are expressed in arbitrary CPK units.
Isolated rat hearts were perfused with oxygenated Krebs-Henseleit solution comprised of NaCl ([…]); KCl ([…]); NaHCO3 ([…]); NaH2O4 ([…]); MgSO4 (1.2 nmol/L); CaCl2 (1.0 nmol/L); and dextrose (10 nmol/L), pH 7.4 at 37 C. After a 10 minute equilibration period, the hearts were treated with the ψεHSP90 peptide or control buffer solution. As depicted in FIG. 5A, Perfusion was maintained at a constant flow of 10 mL/min with Krebs-Henseleit solution containing 1 μM of the appropriate peptide. The Langendorff method employs retrograde flow […] and into the coronary arteries, bypassing the pulmonary arteries. To induce global ischemia, flow was interrupted for 35 minutes. After the ischemic event, the hearts were reperfused with Krebs-Henseleit solution for 15 minutes.
During reperfusion, ischemia-induced cell damage was determined by measuring the activity of creatine phosphokinase (CPK) in the coronary perfusate, carried out using a standard assay kit (Equal Diagnostics, CT, USA). The ψεHSP90 peptide was perfused in Langendorf mode for 10 minutes before and 10 minutes after the ischemic period (1 micromolar) and myocardial injury was assayed by the release of CPK into the effluent during reperfusion (FIG. 5B). Similar to the previous results, hearts that were subjected to IR had high levels of CPK in the effluent; however, perfusion with ψεHSP90 peptide decreased CPK release by 47% (n4; p<0.05; FIG. 5B). Translocation of εPKC and the related isoform δPKC to the mitochondria and plasma membrane was determined by western blotting using εPKC and δPKC antibodies (Santa Cruz Biotechnology) (FIG. 5C). […] Physical interaction between PKCε and HSP90 was determined by co-immunoprecipitation of PKCε and HSP90 in the mitochondrial fraction in hearts exposed to normoxia or IR in the absence or presence of 1 μM ψεHSP90 (FIG. 5D).

[2] = target: T1, PKCε (Rattus norvegicus, UniProt P09216); experiment: PKCε translocation to plasma membrane fraction after IR (western blot); conditions: 1 μM ψεHSP90
T1 construct: Rat heart ventricles were removed from the cannula and homogenized; from tissue; host or cells: Wistar rat heart ventricle; mitochondrial, IMM or plasma membrane fractions
T1 sequence (P09216 1-737): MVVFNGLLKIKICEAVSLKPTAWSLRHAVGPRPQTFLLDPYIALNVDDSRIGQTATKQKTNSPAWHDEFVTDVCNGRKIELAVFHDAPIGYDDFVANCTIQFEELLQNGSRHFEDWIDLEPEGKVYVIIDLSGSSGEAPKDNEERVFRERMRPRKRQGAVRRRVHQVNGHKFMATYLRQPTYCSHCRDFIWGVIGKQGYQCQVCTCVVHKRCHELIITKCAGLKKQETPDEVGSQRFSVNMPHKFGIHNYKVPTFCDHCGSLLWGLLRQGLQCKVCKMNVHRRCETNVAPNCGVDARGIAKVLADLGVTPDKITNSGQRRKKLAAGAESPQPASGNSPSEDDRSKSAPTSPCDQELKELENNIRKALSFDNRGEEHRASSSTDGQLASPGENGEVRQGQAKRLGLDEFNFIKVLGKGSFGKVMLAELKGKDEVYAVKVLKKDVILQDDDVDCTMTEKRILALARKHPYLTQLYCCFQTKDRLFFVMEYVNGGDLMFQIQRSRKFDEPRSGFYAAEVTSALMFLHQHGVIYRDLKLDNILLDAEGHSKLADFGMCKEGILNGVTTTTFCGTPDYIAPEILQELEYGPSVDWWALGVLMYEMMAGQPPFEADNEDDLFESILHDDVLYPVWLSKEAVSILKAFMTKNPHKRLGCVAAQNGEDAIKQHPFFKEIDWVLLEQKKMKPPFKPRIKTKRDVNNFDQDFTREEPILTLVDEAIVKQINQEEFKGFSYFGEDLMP
Procedure: (§2) Rat heart ventricles were removed from the cannula and homogenized in ice-cold mannitol-sucrose buffer (210 mM mannitol, 70 mM sucrose, 5 mM MOPS and 1 mM EDTA containing Sigma Protease Inhibitor 1 and Sigma Phosphatase Inhibitors 1 and 2, added per manufacturer's instructions) The resultant homogenate was filtered through gauze and centrifuged at 700 g for 5 minutes to pellet nuclei and cellular debris. The supernatant was centrifuged at 10,000 g to pellet the mitochondrial-enriched fraction and the supernatant from this fraction centrifuged at 100,000 g to pellet the plasma membrane fraction. […] Mitochondrial purity was also assessed by electron microscopic analysis. Protein concentration was determined by Bradford assay and 10 μg protein separated on a 12% SDS-PAGE gel and transferred to nitrocellulose. PKC translocation was measured using antibodies raised against εPKC and δPKC with mitochondrial (ANT) and cytosolic (GAPDH) markers used to ensure equal sample loading of the mitochondrial and cytosolic fractions, respectively. Densitometry was performed using Image J software (NIH).
During reperfusion, ischemia-induced cell damage was determined by measuring the activity of creatine phosphokinase (CPK) in the coronary perfusate, carried out using a standard assay kit (Equal Diagnostics, CT, USA). […]

[3] = target: T2, recombinant human εPKC (Homo sapiens, UniProt Q02156); experiment: In vitro mitochondrial translocation assay, recombinant GST-εPKC with isolated rat cardiac mitochondria; type: biochemical; conditions: for mitochondrial translocation of εPKC in the absence of phospholipids (PS/DAG): 1 μM ψεHSP90, hydrogen peroxide present, no PS/DAG, FIG. 6B lane 5
T2 construct: purchased Cell Signaling Technology
T2 sequence (Q02156 1-737): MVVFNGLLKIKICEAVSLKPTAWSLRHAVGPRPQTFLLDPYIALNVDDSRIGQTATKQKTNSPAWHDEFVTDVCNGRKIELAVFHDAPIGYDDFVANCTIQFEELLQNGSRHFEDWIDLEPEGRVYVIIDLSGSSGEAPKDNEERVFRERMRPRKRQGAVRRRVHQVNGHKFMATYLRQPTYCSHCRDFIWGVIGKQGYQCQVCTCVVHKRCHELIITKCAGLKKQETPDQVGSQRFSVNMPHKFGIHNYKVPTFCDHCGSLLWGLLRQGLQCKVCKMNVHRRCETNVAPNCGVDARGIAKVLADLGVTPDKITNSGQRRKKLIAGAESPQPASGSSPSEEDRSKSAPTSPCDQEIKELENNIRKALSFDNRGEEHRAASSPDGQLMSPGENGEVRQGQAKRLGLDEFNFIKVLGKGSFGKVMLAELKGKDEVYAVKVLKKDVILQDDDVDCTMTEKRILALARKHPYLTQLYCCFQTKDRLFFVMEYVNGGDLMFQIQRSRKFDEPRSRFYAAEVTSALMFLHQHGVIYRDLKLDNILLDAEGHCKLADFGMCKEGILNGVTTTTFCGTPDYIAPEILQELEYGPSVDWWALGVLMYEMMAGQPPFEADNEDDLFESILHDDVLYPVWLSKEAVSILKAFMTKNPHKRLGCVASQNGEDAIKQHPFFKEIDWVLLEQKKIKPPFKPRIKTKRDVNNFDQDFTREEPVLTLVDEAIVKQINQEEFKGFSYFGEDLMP
Procedure: An in vitro approach was used to identify cellular components that were important for εPKC translocation to the mitochondria. As described in Example 5, mitochondria were isolated from normoxic hearts and incubated for 20 minutes at 37° C. with purified recombinant GST-tagged εPKC (Cell Signaling Technology Inc,), which was pretreated by different combinations of PKC activation components including phospholipids and hydrogen peroxide (H2O2) in the absence (FIG. 6A) and presence (FIG. 6B) of the ψεHSP90 peptide. Following incubation of PKCε with its activation components, mitochondria were introduced into the εPKC mixture and incubated for an additional 20 minutes, after which the mitochondria were pelleted by centrifugation and then probed with antibodies selective for PKCε and the mitochondrial marker VDAC The use of GST-tagged εPKC allowed the distinction, based on size, between exogenous GST-εPKC and native/endogenous εPKC present in the mitochondria prior to treatment. Rabbit reticulocyte lysate (RRL) was used as an exogenous source of HSP90 as described previously (Scherrer et al., Biochemistry. 1992. 31:7325-7329)
Activation of recombinant εPKC was performed as described in the art. Briefly, recombinant εPKC (5 μl of 10 ng/μl stock) (Cell Signaling Technology) was aliquoted into assay buffer (20 mM Tris HCl, 50 mM KCl, 1 mM DTT, 0.1 mg/ml BSA Mg^2+ (5 mM), ATP (100 μM), pH 7.4) containing different combinations of activation factors including phosphatidylserine/diacylglycerol (1 mM), H2O2 (50 μM) or ψεHSP90 (1 μm) in a final volume of 50 μl . εPKC was activated by incubation in assay buffer at 37° C. for 20 min. Rabbit reticulocyte lysate (RRL) (10 μl) was added to the incubation mixture for 10 minutes after εPKC activation. […] Mitochondria were then spun at 10,000 g×10 min, resuspended in 50 μl sample loading buffer and mitochondrial εPKC levels measured by western blotting using VDAC as a loading control. […]

[4] = target: T3, εPKC and HSP90 (Rattus norvegicus, UniProt P09216); experiment: Co-immunoprecipitation of εPKC and HSP90 in heart mitochondrial fraction after IR
T3 construct: 200-500 μg of mitochondrial or cytosolic protein was diluted into 1 ml of IP Lysis Buffer; from tissue; host or cells: Wistar rat heart; mitochondrial (and cytosolic) fraction
T3 sequence (P09216 1-737): T1 sequence (P09216 1-737)
Procedure: Since εPKC and HSP90 are predominately cytosolic proteins, it was expected to observe co-immunoprecipitation of εPKC and HSP90 in the cytosolic fraction following exposure to IR.
200-500 μg of mitochondrial or cytosolic protein was diluted into 1 ml of IP Lysis Buffer (150 mM NaCl, 10 mM Tris-HCl, 5 mM EDTA, 0.1% Triton X-100, pH=7.4, containing Sigma Protease Inhibitor 1 and Sigma Phosphatase Inhibitors 1 and 2). Proteins were incubated with εPKC antibody (2 μg) for 2 hours at 4° C. with inversion mixing. 10 μg of Protein A/G Beads (Santa Cruz Biotechnology) were added and the mixture was incubated overnight at 4° C. with inversion mixing. Beads were then centrifuged, washed 3× in IP Lysis Buffer, then re-suspended in sample buffer. Immunoprecipitated proteins were separated on 10% SDS-PAGE gels. The presence of associated proteins was determined by western blotting using antibodies specific for PKCε HSP90, TOM20 and TIM23. Protein immunoprecipitation was then repeated in reverse (immunoprecipitation with HSP90, TOM20 or TIM23 antibodies followed by western blotting with εPKC antibody). […]

[5] = target: T4, εPKC (Rattus norvegicus, UniProt P09216); experiment: IR-induced mitochondrial translocation of εPKC (western blot of heart mitochondrial fraction)
T4 construct: Rat heart ventricles were removed from the cannula and homogenized; from tissue; host or cells: Wistar rat heart ventricle; mitochondrial, IMM or plasma membrane fractions
T4 sequence (P09216 1-737): T1 sequence (P09216 1-737)
Procedure: as §1
as §2, with “debris.” for “debris. The supernatant was centrifuged at 10,000 g to pellet the mitochondrial-enriched fraction and the supernatant from this fraction centrifuged at 100,000 g to pellet the plasma membrane fraction.”, “Densitometry was performed using Image J software (NIH).” left out
During reperfusion, ischemia-induced cell damage was determined by measuring the activity of creatine phosphokinase (CPK) in the coronary perfusate, carried out using a standard assay kit (Equal Diagnostics, CT, USA). […] Translocation of εPKC and the related isoform δPKC to the mitochondria and plasma membrane was determined by western blotting using εPKC and δPKC antibodies (Santa Cruz Biotechnology) (FIG. 5C). […]

[6] = tested on: δPKC; experiment: IR-induced mitochondrial translocation of δPKC (western blot of heart mitochondrial fraction); set-up: species or system rat; conditions: 1 μM ψεHSP90

Row | effect on PKCε translocation to the plasma membrane [2] | mitochondrial translocation of εPKC in the absence of phospholipids (PS/DAG) [3] | mitochondrial translocation of εPKC in the absence of phospholipids (PS/DAG) ([3]; listed as ψεHSP90) | effect on association/translocation of εPKC with isolated mitochondria in vitro ([3]; 1 μM ψεHSP90, FIG. 6B lanes 2-5) | effect on IR-induced physical association of PKCε and HSP90 at the mitochondria ([4]; 1 μM ψεHSP90) | increase in IR-induced physical interaction between HSP90 and PKCε (co-immunoprecipitation) ([4]; 1 μM ψεHSP90, mitochondrial fraction) | effect on mitochondrial translocation of PKCε after IR ([5]; 1 μM ψεHSP90) | higher mitochondrial PKCε levels versus IR group untreated with peptide ([5]; IR in the presence of 1 μm ψεHSP90 peptide) | reduction of IR-induced CPK release ([1]; 10 min before ischemia and first 10 min of reperfusion, versus IR alone, p<0.05) | Substance | effect on IR-induced CPK release / IR injury [1] | effect on IR-induced CPK release / IR injury ([1]; listed as corresponding sequence from the HSP90 protein) | effect on PKCδ association with the mitochondria after IR [6]
1 |  |  |  |  |  |  |  |  |  | PEDEEEK (not fully specified) | no statistical effect | no effect | 
2 | did not affect | resulted in translocation of εPKC | sufficient to induce | increased | increased | ~4 fold | enhanced | ~20% | 47% | PKDNEER (not fully specified) [ψεHSP90 peptide] | significantly reduced |  | not altered; also recorded: without effect
